In US7893197B2, “Relaxin-3 chimeric polypeptides and their preparation and use” (Janssen Pharmaceutica N.V., priority 2005, dated 2011):

Biological target: T1, LGR7 (Homo sapiens, UniProt Q9HBX9)
T1 construct: Human LGR7 cDNA containing the complete coding region was PCR amplified; expressed in transfected cells
T1 sequence (Q9HBX9 1-757): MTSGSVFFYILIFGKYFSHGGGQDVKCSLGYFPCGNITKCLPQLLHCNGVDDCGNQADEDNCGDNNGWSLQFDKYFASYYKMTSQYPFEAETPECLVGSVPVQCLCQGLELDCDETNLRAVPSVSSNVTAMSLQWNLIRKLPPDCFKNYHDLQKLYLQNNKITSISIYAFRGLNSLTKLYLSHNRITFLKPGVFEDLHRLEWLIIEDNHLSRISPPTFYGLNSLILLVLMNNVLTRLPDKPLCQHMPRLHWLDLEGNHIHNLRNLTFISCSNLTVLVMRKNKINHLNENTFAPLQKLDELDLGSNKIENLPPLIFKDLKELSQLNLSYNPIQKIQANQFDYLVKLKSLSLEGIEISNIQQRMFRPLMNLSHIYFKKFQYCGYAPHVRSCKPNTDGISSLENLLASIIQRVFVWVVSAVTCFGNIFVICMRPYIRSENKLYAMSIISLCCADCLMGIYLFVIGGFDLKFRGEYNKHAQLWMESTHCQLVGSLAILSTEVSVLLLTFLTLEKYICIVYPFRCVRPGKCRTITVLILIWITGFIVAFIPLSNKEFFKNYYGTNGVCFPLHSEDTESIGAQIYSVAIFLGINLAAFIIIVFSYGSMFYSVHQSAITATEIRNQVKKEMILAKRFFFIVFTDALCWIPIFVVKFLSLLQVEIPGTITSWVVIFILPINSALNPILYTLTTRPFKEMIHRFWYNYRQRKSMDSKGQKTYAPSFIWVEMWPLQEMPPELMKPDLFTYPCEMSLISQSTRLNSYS
Assay: Stimulation of β-galactosidase expression in SK-N-MC/β-gal cells
Format: cell-based
Method: FIGS. 1A-1D show the activation of GPCR135 and GPCR142 by relaxin-3 B-chain, but not of LGR7 or LGR8. In FIG. 1A, SK-N-MC/β-gal cells expressing human GPCR135 were stimulated with relaxin-3, relaxin-3 B-chain, porcine relaxin, or INSL3 at various concentrations to inhibit the forskolin stimulated β-galactosidase expression. Forskolin was added to cells at a final concentration of 5 μM to stimulate the β-galactosidase expression. FIG. 1B depicts results for SK-N-MC/β-gal cells expressing human GPCR142 stimulated as in FIG. 1A. In FIG. 1C, SK-N-MC/β-gal cells expressing human LGR7 were stimulated with relaxin-3, relaxin-3 B-chain, porcine relaxin, and INSL3 at various concentrations to induce the β-galactosidase expression. The intracellular β-galactosidase activities were measured by a colorimetric assay using CRGP as the substrate and reading the absorbance at a wavelength of 570 nm. For FIG. 1D, SK-N-MC/β-gal cells expressing human LGR8 were stimulated as in FIG. 1C.
FIGS. 4A-4D illustrate the evaluation of the agonist activity of relaxin-3 chimeric polypeptides in biofunctional assays. Different chimeric polypeptides at various concentrations were added to SK-N-MC/β-gal cells expressing human GPCR135 (FIG. 4A) or GPCR142 (FIG. 4B) to inhibit forskolin stimulated β-galactosidase expression. Human relaxin-3 was used as the positive control. In parallel, chimeric polypeptides at various concentrations were added to SK-N-MC/β-gal cells expressing human LGR7 (FIG. 4C) and LGR8 (FIG. 4D) to stimulate β-galactosidase expression. Relaxin-3 and INSL3 were used as positive controls for LGR7 and LGR8, respectively. Intracellular β-galactosidase activity was measured by a colorimetric assay using CRGP as the substrate and reading the absorbance at wavelength of 570 nm. Data represent mean±SEM (n=3).
It has been shown that synthetic human relaxin-3 B-chain alone, but not A-chain, is an agonist for both GPCR135 and GPCR142 (Liu et al., 2003, Journal of Biological Chemistry, 278:50754-50764 and Liu et al., 2003, Journal of Biological Chemistry, 278:50765-50770). Those studies were repeated herein in SK-N-MC/β-gal cells, which harbor a β-galactosidase gene under the control of a cAMP responsive element (CRE) (Liu et al., 2001, Molecular Pharmacology, 59:420-426). In such SK-N-MC/β-gal cells, an increase in intracellular cAMP concentration leads to increased β-galactosidase gene expression, the activity of which is measured using Chlorophenol Red-β-D-Galactopyranoside (CPRG) as the substrate.
The inventive chimeric polypeptides were each independently tested for their ability to activate either GPCR135, GPCR142, LGR7, or LGR8, respectively, in separate pools of SK-N-MC/β-gal cells (see supra), each pool stably expressing one of the respective receptors, as indicated (FIG. 4).
Cells were seeded in 96-well tissue culture plate at a density of 30,000 cells/well in MEM plus 10% fetal serum, sodium pyruvate, penicillin, streptomycin, and G418 (400 mg/L). For cells expressing GPCR135 or GPCR142, forskolin was added to cells at a final concentration of 5 μM to stimulate intracellular cAMP accumulation. Different concentrations of each of the inventive polypeptides were then added to the cells to inhibit the forskolin induced cAMP accumulation. For cells expressing LGR7 or LGR8, intracellular cAMP was stimulated with each of the inventive chimeric polypeptides at various concentrations.
For all cells, after adding the chimeric polypeptides, cells were incubated for 6 additional hours in 37° C. incubator. The media was then aspirated and the β-galactosidase activities measured as previously described (Liu et al., 2001, Molecular Pharmacology, 59:420-426). The results were analyzed by Prism 3.0 software. […]

## R3/I4: chimeric polypeptide: human relaxin-3 B-chain and INSL4 A-chain; mature polypeptide SEQ ID NO:22 (RAAPYGVRLCGREFIRAVIFTCGGSRWFDPFCCEVICDDGTSVKLC; Human Relaxin-3/Insulin-like 4 chimeric mature polypeptide)
  activation of LGR7, in words: no activity
